B1: Solute carrier family 2, facilitated glucose transporter member 9 (Homo sapiens), Q9NRM0-1 (parent)
chain: MARKQNRNSKELGLVPLTDDTSHAGPPGPGRALLECDHLRSGVPGGRRRKDWSCSLLVASLAGAFGSSFLYGYNLSVVNAPTPYIKAFYNESWERRHGRPIDPDTLTLLWSVTVSIFAIGGLVGTLIVKMIGKVLGRKHTLLANNGFAISAALLMACSLQAGAFEMLIVGRFIMGIDGGVALSVLPMYLSEISPKEIRGSLGQVTAIFICIGVFTGQLLGLPELLGKESTWPYLFGVIVVPAVVQLLSLPFLPDSPRYLLLEKHNEARAVKAFQTFLGKADVSQEVEEVLAESRVQRSIRLVSVLELLRAPYVRWQVVTVIVTMACYQLCGLNAIWFYTNSIFGKAGIPPAKIPYVTLSTGGIETLAAVFSGLVIEHLGRRPLLIGGFGLMGLFFGTLTITLTLQDHAPWVPYLSIVGILAIIASFCSGPGGIPFILTGEFFQQSQRPAAFIIAGTVNWLSNFAVGLLFPFIQKSLDTYCFLVFATICITGAIYLYFVLPETKNRTYAEISQAFSKRNKAYPPEEKIDSAVTDGKINGRP
B2: Solute carrier family 2, facilitated glucose transporter member 9 (Homo sapiens), Q9NRM0-2 (parent)
chain: MKLSKKDRGEDEESDSAKKKLDWSCSLLVASLAGAFGSSFLYGYNLSVVNAPTPYIKAFYNESWERRHGRPIDPDTLTLLWSVTVSIFAIGGLVGTLIVKMIGKVLGRKHTLLANNGFAISAALLMACSLQAGAFEMLIVGRFIMGIDGGVALSVLPMYLSEISPKEIRGSLGQVTAIFICIGVFTGQLLGLPELLGKESTWPYLFGVIVVPAVVQLLSLPFLPDSPRYLLLEKHNEARAVKAFQTFLGKADVSQEVEEVLAESRVQRSIRLVSVLELLRAPYVRWQVVTVIVTMACYQLCGLNAIWFYTNSIFGKAGIPPAKIPYVTLSTGGIETLAAVFSGLVIEHLGRRPLLIGGFGLMGLFFGTLTITLTLQDHAPWVPYLSIVGILAIIASFCSGPGGIPFILTGEFFQQSQRPAAFIIAGTVNWLSNFAVGLLFPFIQKSLDTYCFLVFATICITGAIYLYFVLPETKNRTYAEISQAFSKRNKAYPPEEKIDSAVTDGKINGRP

Variants of: B1
Settings: with itm2b_human ITM2B

| effect of a mutation on the interaction | Variant |
| --- | --- |
| with no effect | MARKQNRNSKELGLVPLTDDTSHAGPPGPGRALLECDHLRSGVPGGRRRKDWSCSLLVASLAGAFGSSFLYGYNLSVVNAPTPYIKAFYQESWERRHGRPIDPDTLTLLWSVTVSIFAIGGLVGTLIVKMIGKVLGRKHTLLANNGFAISAALLMACSLQAGAFEMLIVGRFIMGIDGGVALSVLPMYLSEISPKEIRGSLGQVTAIFICIGVFTGQLLGLPELLGKESTWPYLFGVIVVPAVVQLLSLPFLPDSPRYLLLEKHNEARAVKAFQTFLGKADVSQEVEEVLAESRVQRSIRLVSVLELLRAPYVRWQVVTVIVTMACYQLCGLNAIWFYTNSIFGKAGIPPAKIPYVTLSTGGIETLAAVFSGLVIEHLGRRPLLIGGFGLMGLFFGTLTITLTLQDHAPWVPYLSIVGILAIIASFCSGPGGIPFILTGEFFQQSQRPAAFIIAGTVNWLSNFAVGLLFPFIQKSLDTYCFLVFATICITGAIYLYFVLPETKNRTYAEISQAFSKRNKAYPPEEKIDSAVTDGKINGRP [N90Q] |

Variants of: B2
Settings: with itm2b_human ITM2B

| effect of a mutation on the interaction | Variant |
| --- | --- |
| with no effect | MKLSKKDRGEDEESDSAKKKLDWSCSLLVASLAGAFGSSFLYGYNLSVVNAPTPYIKAFYQESWERRHGRPIDPDTLTLLWSVTVSIFAIGGLVGTLIVKMIGKVLGRKHTLLANNGFAISAALLMACSLQAGAFEMLIVGRFIMGIDGGVALSVLPMYLSEISPKEIRGSLGQVTAIFICIGVFTGQLLGLPELLGKESTWPYLFGVIVVPAVVQLLSLPFLPDSPRYLLLEKHNEARAVKAFQTFLGKADVSQEVEEVLAESRVQRSIRLVSVLELLRAPYVRWQVVTVIVTMACYQLCGLNAIWFYTNSIFGKAGIPPAKIPYVTLSTGGIETLAAVFSGLVIEHLGRRPLLIGGFGLMGLFFGTLTITLTLQDHAPWVPYLSIVGILAIIASFCSGPGGIPFILTGEFFQQSQRPAAFIIAGTVNWLSNFAVGLLFPFIQKSLDTYCFLVFATICITGAIYLYFVLPETKNRTYAEISQAFSKRNKAYPPEEKIDSAVTDGKINGRP [N61Q] |

Variants of: B2
Settings: with itm2b_human ITM2B
Remark: another data set of the same source

| effect of a mutation on the interaction | Variant |
| --- | --- |
| disrupting interaction strength | MKLSKKDRGEDEESDSAKKKLDWSCSLLVASLAGAFGSSFLYGYNLSVVNAPTPYIKAFYQESWERRHGRPIDPDTLTLLWSVTVSIFAIGGLVGTLIVKMIGKVLGRKHTLLANNGFAISAALLMACSLQAGAFEMLIVGRFIMGIDGGVALSVLPMYLSEISPKEIRGSLGQVTAIFICIGVFTGQLLGLPELLGKESTWPYLFGVIVVPAVVQLLSLPFLPDSPRYLLLEKHNEARAVKAFQTFLGKADVSQEVEEVLAESRVQRSIRLVSVLELLRAPYVRWQVVTVIVTMACYQLCGLNAIWFYTNSIFGKAGIPPAKIPYVTLSTGGIETLAAVFSGLVIEHLGRRPLLIGGFGLMGLFFGTLTITLTLQDHAPWVPYLSIVGILAIIASFCSGPGGIPFILTGEFFQQSQRPAAFIIAGTVNWLSNFAVGLLFPFIQKSLDTYCFLVFATICITGAIYLYFVLPETKNRTYAEISQAFSKRNKAYPPEEKIDSAVTDGKINGRP [N61Q] |
